The values that follow come from CN110974958A (BEIJING DONGFANG BIOTECH CO LTD, dated 2020).

The target of assay [1] is T1, PD-L1 (UniProt Q9NZQ7 19-238, limits assumed). Kind of assay: cell-based or functional assay.
Assay [2] deals with T1, PD-L1. As to the kind of experiment: ELISA, PD-L1 coated 100 ng/well, full antibody titrated from 1 ug/ml, Anti-Human Fc-HRP. On the technique in general: An ELISA detects its analyte on a solid surface through an enzyme-linked reagent.
For another assay, the target named is T2, PD-L1-Fc (UniProt Q9NZQ7 19-238, limits assumed).
T2 construct: not shown: Fc part
T2 sequence (Q9NZQ7 19-238 limits assumed): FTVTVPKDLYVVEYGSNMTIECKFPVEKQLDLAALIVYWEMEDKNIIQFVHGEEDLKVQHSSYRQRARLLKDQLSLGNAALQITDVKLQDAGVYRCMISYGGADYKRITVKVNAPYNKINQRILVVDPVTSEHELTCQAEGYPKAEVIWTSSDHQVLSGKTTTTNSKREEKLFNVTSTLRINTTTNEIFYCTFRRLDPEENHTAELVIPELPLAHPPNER
As to the kind of experiment: competition ELISA, PD-L1-Fc coated 200 ng/well, competitor PD-1-His 5 ug/ml, anti-His-HRP.

Broadly, the EC50 is the concentration that produces a half-maximal response. Low values mean higher potency in that assay, high ones lower potency in that assay. A word on the IC50: it is the concentration that inhibits the measured activity by half. Read a high IC50 as lower potency.

T1 sequence (Q9NZQ7 19-238 limits assumed): as above

B1: BH2-B11 全抗体 (full antibody, human IgG1/kappa) (antibody, V domains shown)
VH: EVQLVESGGGLVQPGGSLRLSCAASGLTWSDSYKHWVRQAPGKGLEWVHWNSTYGGSTYYADSVKGRFTISADTSKNTAYLQMNSLRAEDTAVYYCARRHFASTWDYWGQGTLVTVSS
VL: DIQMTQSPSSLSASVGDRVTITCRASQNIHNSLAWYQQKPGKAPKLLIYGASSLESGVPSRFSGSGSGTDFTLTISSLQPEDFATYYCQQERRVPWTFGQGTKVEIKR
notes: Full antibody expressed in HEK293E from vector pTSE
As for B1, the “EC50(ng/ml), 混合淋巴细胞反应(MLR), CD4+ T细胞增殖 (cck8)” value (“EC50(ng/ml), 混合淋巴细胞反应(MLR)” for short) in the assay with PD-L1 [1] turned out to be 6.73 ng/mL. In the assay with PD-L1 [2], it took 0.535 ng/mL to reach a half-maximal effect (EC50). This molecule showed an IC50 with PD-L1-Fc of 61.2 ng/mL.

B2: AH10-E3 全抗体 (full antibody, human IgG1/kappa) (antibody, V domains shown)
VH: EVQLVESGGGLVQPGGSLRLSCAASGWTLSDSLQHWVRQAPGKGLEWVGFQSAYGGSTYYADSVKGRFTISADTSKNTAYLQMNSLRAEDTAVYYCARRHYYTAWDYWGQGTLVTVSS
VL: DIQMTQSPSSLSASVGDRVTITCRASQSIHNYLAWYQQKPGKAPKLLIYSASNLPSGVPSRFSGSGSGTDFTLTISSLQPEDFATYYCQQGLHTPPTFGQGTKVEIKR
notes: as for B1
As for B2, the “EC50(ng/ml), 混合淋巴细胞反应(MLR)” value in the assay with PD-L1 [1] stood at 11.4 ng/mL. This molecule came in with an EC50 with PD-L1 [2] of 1.91 ng/mL. The molecule further returned an IC50 with PD-L1-Fc of 136 ng/mL.

B3: AC9-E3 全抗体 (full antibody, human IgG1/kappa) (antibody, V domains shown)
VH: EVQLVESGGGLVQPGGSLRLSCAASGCTWSDSWDHWVRQAPGKGLEWVDYESTYGGSTYYADSVKGRFTISADTSKNTAYLQMNSLRAEDTAVYYCARRHWNATFDYWGQGTLVTVSS
VL: DIQMTQSPSSLSASVGDRVTITCRASQSIHNYLAWYQQKPGKAPKLLIYSASNLPSGVPSRFSGSGSGTDFTLTISSLQPEDFATYYCQQGLHTPPTFGQGTKVEIKR
notes: as for B1
B3: the “EC50(ng/ml), 混合淋巴细胞反应(MLR)” value in the assay with PD-L1 [1] turned out to be 11.9 ng/mL. A half-maximal response in the assay with PD-L1 [2] (EC50) required 2.17 ng/mL. This molecule also displayed an IC50 with PD-L1-Fc of 138 ng/mL.

B4: BH2-E3 全抗体 (full antibody, human IgG1/kappa) (antibody, V domains shown)
VH: EVQLVESGGGLVQPGGSLRLSCAASGLTWSDSYKHWVRQAPGKGLEWVHWNSTYGGSTYYADSVKGRFTISADTSKNTAYLQMNSLRAEDTAVYYCARRHFASTWDYWGQGTLVTVSS
VL: DIQMTQSPSSLSASVGDRVTITCRASQSIHNYLAWYQQKPGKAPKLLIYSASNLPSGVPSRFSGSGSGTDFTLTISSLQPEDFATYYCQQGLHTPPTFGQGTKVEIKR
notes: as for B1
For B4, the “EC50(ng/ml), 混合淋巴细胞反应(MLR)” value with PD-L1 [1] worked out at 7.71 ng/mL. This molecule registered an EC50 with PD-L1 [2] of 1.23 ng/mL. This molecule also had a half-inhibitory concentration (IC50) in the assay with PD-L1-Fc of 92.7 ng/mL.

B5: AH10-B11 全抗体 (full antibody, human IgG1/kappa) (antibody, V domains shown)
VH: EVQLVESGGGLVQPGGSLRLSCAASGWTLSDSLQHWVRQAPGKGLEWVGFQSAYGGSTYYADSVKGRFTISADTSKNTAYLQMNSLRAEDTAVYYCARRHYYTAWDYWGQGTLVTVSS
VL: DIQMTQSPSSLSASVGDRVTITCRASQNIHNSLAWYQQKPGKAPKLLIYGASSLESGVPSRFSGSGSGTDFTLTISSLQPEDFATYYCQQERRVPWTFGQGTKVEIKR
notes: Full antibody expressed in HEK293E from vector pTSE; also called AH10-811
On to B5, for which, in the assay with PD-L1 [1], the “EC50(ng/ml), 混合淋巴细胞反应(MLR)” value was 9.88 ng/mL. In the assay with PD-L1 [2], this molecule registered an EC50 of 1.43 ng/mL. This molecule also had an IC50 in the assay with PD-L1-Fc of 108 ng/mL.

B6: AC9-B11 全抗体 (full antibody, human IgG1/kappa) (antibody, V domains shown)
VH: EVQLVESGGGLVQPGGSLRLSCAASGCTWSDSWDHWVRQAPGKGLEWVDYESTYGGSTYYADSVKGRFTISADTSKNTAYLQMNSLRAEDTAVYYCARRHWNATFDYWGQGTLVTVSS
VL: DIQMTQSPSSLSASVGDRVTITCRASQNIHNSLAWYQQKPGKAPKLLIYGASSLESGVPSRFSGSGSGTDFTLTISSLQPEDFATYYCQQERRVPWTFGQGTKVEIKR
notes: as for B1
As for B6, the “EC50(ng/ml), 混合淋巴细胞反应(MLR)” value with PD-L1 [1] is 7.58 ng/mL. Further, in the assay with PD-L1 [2], the EC50 was 0.574 ng/mL. In the assay with PD-L1-Fc, the IC50 was found to be 82 ng/mL.
